The target of test [1] is recombinant catalytic domain of human LOX (169-417) (human) (UniProt P28300). The test can be described thus: ELISA, plate coated with LOX catalytic domain, detection with anti-human peroxidase antibody.
Test [2] concerns the target endogenous HSP70 from the mouse Ret melanoma cell line (mouse) (UniProt Q61696). The test can be described thus: cell-based or functional assay.
The target in test [3] is recombinant HSP70 (UniProt P0DMV8). The test can be described thus: ELISA, plate coated with recombinant HSP70, detection with anti-human peroxidase antibody.

In general, EC50 refers to the concentration giving half of the maximal effect.

Sequence of recombinant catalytic domain of human LOX (169-417) (human) (P28300 169-417 limits assumed): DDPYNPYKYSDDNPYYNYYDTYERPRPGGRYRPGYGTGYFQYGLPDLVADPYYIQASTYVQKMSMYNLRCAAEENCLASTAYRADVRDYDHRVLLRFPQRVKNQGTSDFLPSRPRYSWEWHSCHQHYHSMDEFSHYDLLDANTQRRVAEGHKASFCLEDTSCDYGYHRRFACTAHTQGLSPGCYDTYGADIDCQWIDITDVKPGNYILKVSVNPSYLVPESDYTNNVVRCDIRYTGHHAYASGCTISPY
Sequence of recombinant HSP70 (P0DMV8 whole entry): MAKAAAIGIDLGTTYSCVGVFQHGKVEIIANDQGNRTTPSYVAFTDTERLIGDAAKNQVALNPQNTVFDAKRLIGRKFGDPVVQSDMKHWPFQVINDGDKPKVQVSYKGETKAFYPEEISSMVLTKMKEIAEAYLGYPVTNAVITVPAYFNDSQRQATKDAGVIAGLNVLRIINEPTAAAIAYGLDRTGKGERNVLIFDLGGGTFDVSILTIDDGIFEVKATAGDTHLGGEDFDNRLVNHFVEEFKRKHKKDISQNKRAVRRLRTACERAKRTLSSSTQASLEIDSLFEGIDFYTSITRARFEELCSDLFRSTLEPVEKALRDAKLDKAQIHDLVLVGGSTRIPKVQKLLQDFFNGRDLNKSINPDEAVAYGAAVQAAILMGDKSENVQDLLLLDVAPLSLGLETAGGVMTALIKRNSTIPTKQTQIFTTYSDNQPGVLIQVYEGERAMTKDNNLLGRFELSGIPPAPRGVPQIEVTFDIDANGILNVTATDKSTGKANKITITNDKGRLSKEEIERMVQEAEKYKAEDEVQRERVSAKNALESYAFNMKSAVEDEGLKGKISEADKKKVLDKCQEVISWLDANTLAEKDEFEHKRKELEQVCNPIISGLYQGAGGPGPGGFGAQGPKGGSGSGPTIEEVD
Sequence of endogenous HSP70 from the mouse Ret melanoma cell line (mouse) (Q61696 2-641): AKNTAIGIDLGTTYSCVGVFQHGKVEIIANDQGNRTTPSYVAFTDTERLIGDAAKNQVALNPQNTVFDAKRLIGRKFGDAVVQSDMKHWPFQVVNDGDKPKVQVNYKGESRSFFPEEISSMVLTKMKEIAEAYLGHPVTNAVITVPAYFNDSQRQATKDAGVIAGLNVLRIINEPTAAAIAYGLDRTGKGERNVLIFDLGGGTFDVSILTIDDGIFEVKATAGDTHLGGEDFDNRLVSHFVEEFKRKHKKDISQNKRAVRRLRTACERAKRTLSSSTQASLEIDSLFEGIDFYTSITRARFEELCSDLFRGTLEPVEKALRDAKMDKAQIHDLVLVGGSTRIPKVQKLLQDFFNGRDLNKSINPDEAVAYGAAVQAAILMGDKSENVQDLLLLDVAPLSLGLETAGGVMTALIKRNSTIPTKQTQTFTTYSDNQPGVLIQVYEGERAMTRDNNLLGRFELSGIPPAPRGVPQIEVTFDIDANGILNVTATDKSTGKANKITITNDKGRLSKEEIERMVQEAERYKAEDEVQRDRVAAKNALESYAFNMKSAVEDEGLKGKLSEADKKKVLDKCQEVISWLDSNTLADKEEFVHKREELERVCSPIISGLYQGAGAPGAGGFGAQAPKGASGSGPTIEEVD

For “AS2 (non-glycosylated LOX-PP fused to human IgG1 Fc) (Fc fusion)”, the EC50 came out at 58 nM in test [1] and 57 nM in test [3]. The ATPase activity of HSP70 in the culture media of Ret-melanoma cells (decrease against Fc) in test [2] worked out at 18%.

The values above are taken from US20240398906A1.
